The target of assay [1] is T1, N-terminus of sharpin (SH-N, 1-217 amino acids), his-tagged (UniProt Q9H0F6 1-217).
T1 construct: also called His-SH-N; N-terminal fragment of sharpin; source: E. coli Rosetta DE3, purified (Ni-NTA agarose)
T1 sequence (looked up): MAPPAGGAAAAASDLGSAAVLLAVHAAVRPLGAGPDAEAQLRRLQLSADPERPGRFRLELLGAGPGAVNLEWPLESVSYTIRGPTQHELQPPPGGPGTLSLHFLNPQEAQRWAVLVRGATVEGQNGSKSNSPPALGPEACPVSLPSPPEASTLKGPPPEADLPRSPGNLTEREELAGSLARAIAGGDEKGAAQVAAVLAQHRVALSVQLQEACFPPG
In words: SPR; Biacore 8K; N-terminal fragment of sharpin coupled to a CM5 chip; integrin β1 CT or β3 CT injected at 2.5, 5, 10, 20 and 40 μM; room temperature, PBS. To be noted: both partners purified.

The target of the next assay is T2, GST-fused kindlin-1 (Homo sapiens (Human), UniProt Q9BQL6).
T2 chain: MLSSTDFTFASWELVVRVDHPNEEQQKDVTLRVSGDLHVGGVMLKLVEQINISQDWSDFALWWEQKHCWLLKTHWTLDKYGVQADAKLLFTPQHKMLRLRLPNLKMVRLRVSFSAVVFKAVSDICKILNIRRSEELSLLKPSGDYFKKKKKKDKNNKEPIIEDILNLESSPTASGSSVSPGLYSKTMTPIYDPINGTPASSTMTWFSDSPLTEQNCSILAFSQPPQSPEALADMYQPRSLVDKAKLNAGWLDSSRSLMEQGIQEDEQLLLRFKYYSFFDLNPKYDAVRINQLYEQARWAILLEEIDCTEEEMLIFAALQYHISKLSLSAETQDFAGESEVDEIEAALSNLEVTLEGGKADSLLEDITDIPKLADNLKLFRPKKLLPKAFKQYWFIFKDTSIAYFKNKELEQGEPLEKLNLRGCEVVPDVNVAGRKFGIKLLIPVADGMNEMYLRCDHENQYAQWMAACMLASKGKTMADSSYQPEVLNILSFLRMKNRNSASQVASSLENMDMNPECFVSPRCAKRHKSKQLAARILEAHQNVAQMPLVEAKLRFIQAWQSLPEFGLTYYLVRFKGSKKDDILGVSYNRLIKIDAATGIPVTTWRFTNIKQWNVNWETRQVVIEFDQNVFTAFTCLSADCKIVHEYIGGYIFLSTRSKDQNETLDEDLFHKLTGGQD
In words: GST pull-down.

Assay [2] concerns the target T3, GST-fused integrin β1 cytoplasmic tail (Homo sapiens (Human), UniProt P05556).
T3 chain: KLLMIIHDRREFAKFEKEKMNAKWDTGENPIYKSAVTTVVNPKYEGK
In words: GST pull-down.

B1: integrin β1 CT protein (NMR and SPR samples) (domain or fragment, UniProt P05556 752-798, looked up)
chain: KLLMIIHDRREFAKFEKEKMNAKWDTGENPIYKSAVTTVVNPKYEGK
notes: Integrin β1 cytoplasmic tail (CT); 15N-labelled in the HSQC experiment, unlabelled analyte in SPR; The only vector named for the tails is pGST-1; also called ^15N-labeled β1 CT; the integrin β1 CT protein
The Kd is the equilibrium constant for the complex coming apart. A higher Kd goes with lower affinity. As to B1, the Kd in assay [1] was determined as 40 µM.

B2: C-terminus of sharpin (SH-C, 217-387 amino acids), his-tagged (protein)
chain: GPIRLQVTLEDAASAASAASSAHVALQVHPHCTVAALQEQVFSELGFPPAVQRWVIGRCLCVPERSLASYGVRQDGDPAFLYLLSAPREAPATGPSPQHPQKMDGELGRLFPPSLGLPPGPQPAASSLPSPLQPSWSCPSCTFINAPDRPGCEMCSTQRPCTWDPLAAAST
In the case of B2, the binding result is on record as “binds” in the assay with GST-fused kindlin-1 and “no binding” in assay [2].

B3: his-tagged kindlin-1 (protein)
chain: MLSSTDFTFASWELVVRVDHPNEEQQKDVTLRVSGDLHVGGVMLKLVEQINISQDWSDFALWWEQKHCWLLKTHWTLDKYGVQADAKLLFTPQHKMLRLRLPNLKMVRLRVSFSAVVFKAVSDICKILNIRRSEELSLLKPSGDYFKKKKKKDKNNKEPIIEDILNLESSPTASGSSVSPGLYSKTMTPIYDPINGTPASSTMTWFSDSPLTEQNCSILAFSQPPQSPEALADMYQPRSLVDKAKLNAGWLDSSRSLMEQGIQEDEQLLLRFKYYSFFDLNPKYDAVRINQLYEQARWAILLEEIDCTEEEMLIFAALQYHISKLSLSAETQDFAGESEVDEIEAALSNLEVTLEGGKADSLLEDITDIPKLADNLKLFRPKKLLPKAFKQYWFIFKDTSIAYFKNKELEQGEPLEKLNLRGCEVVPDVNVAGRKFGIKLLIPVADGMNEMYLRCDHENQYAQWMAACMLASKGKTMADSSYQPEVLNILSFLRMKNRNSASQVASSLENMDMNPECFVSPRCAKRHKSKQLAARILEAHQNVAQMPLVEAKLRFIQAWQSLPEFGLTYYLVRFKGSKKDDILGVSYNRLIKIDAATGIPVTTWRFTNIKQWNVNWETRQVVIEFDQNVFTAFTCLSADCKIVHEYIGGYIFLSTRSKDQNETLDEDLFHKLTGGQD
Turning to B3, the binding result in assay [2] is recorded as “binds”.

The record behind these values is article PMC6700787, “Sharpin suppresses β1-integrin activation by complexing with the β1 tail and kindlin-1” (Cell Communication and Signaling : CCS, 2019).
